# In the RNAGym collection of RNA variant scans (doi:10.1073/pnas.2313332121):
# This sample holds only a part of the variants without activity.
# B1: TPR 5TU (parent)
# chain: GGAUCUUCUCGAUCUAACAAAAAAGACAAAUCUGCCACAAAGCUUGAGAGCAUCUUCGGAUGCAGAGGCGGCAGCCUUCGGUGGCGCGAUAGCGCCAACGUUCUCAACUAUGACACGCAAAACGCGUGCUCCGUUGAAUGGAGUUUAUCAUG
# Variants of: B1
# Assay: polymerase ribozyme fitness, log enrichment relative to wild type (log ratio); higher = more active; in vitro selection for triplet polymerase activity
# In short: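 Libraries of mutants in each subunit of a heterodimeric triplet polymerase ribozyme were generated by PCR and transcribed. In triplicate, each went through one in vitro selection round: annealing with biotinylated primer, partner subunit and triplets; frozen incubation at −7 °C; gel excision of extended constructs; streptavidin-bead capture; RT-PCR. Fitness, taken from Illumina sequencing of input and output libraries, is the logarithm of a genotype's enrichment over wild-type enrichment, averaged across replicates with inverse-variance weights. The logarithm is base 2, and genotypes needed ≥10 input reads and ≥1 read per output to be kept.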
row,Variant,polymerase ribozyme fitness (log ratio)
1,C38A A147C,-1.26
2,A37U A39U A49C G50C G84A A98C G143U,≤ -4.2
3,C38U A41U C51U G84A G143A,-3.06
4,C35U U45G G58A U61G C76U C85A C93G U104A A107C G152A,≤ -4.2
5,C35U C76U C96A C125G A142G,-2.86
6,A37C G81C C85G C116G U144G,-4.04
7,C36U C85U,-1.83
8,C36U C85A,-2.75
9,C38U A91U,≤ -4.2
10,C38G C54U C57U U146C,-1.16
11,C35U G83C,-1.43
12,C36A U55A,-3.27
13,C36U A52C U55G G58C C125A C131G,≤ -4.2
14,C35U C57G G65U U144C,-4.2
15,A37C C123U,0.207
16,A37U C57U U101G,-0.608
17,C35U A60C A98U A142G,-2.28
18,C35U U45A G59C C93G U144A,≤ -4.2
19,C35U C93U,-1.74
20,A37U C75A G84A C114U,≤ -4.2
21,C35U C85G,-2.73
22,A37C U44A C87A G94A U134G G141U,≤ -4.2
23,C35U C95U,-1.1
24,A37G C114U,-2.87

row,Variant,polymerase ribozyme fitness (log ratio)
1,C36A U61G A64C C118A A147C,≤ -4.2
2,A37U A98U,-0.971
3,A37C G58A,0.575
4,C38U C76U U77G G92A C118A C129U,≤ -4.2
5,C38G C85G,-2.66
6,C35U G68U U90G G117A U144G,≤ -4.2
7,A37C G84U U127G G128A U134G,≤ -4.2
8,C38G C69A C85A C96A A97C,-3.84
9,C36U A41C A47C A49U U55A C76G G94A A110C A113G U148G,-4.13
10,A37U G58C,-0.362
11,C35U G86A,-1.37
12,A37C A41U G50C G81U C95U U111A C118G U127C A142C,≤ -4.2
13,C38A G84A,-1.23
14,A37G C85G,-3.97
15,C36U A106G C114G,-3.87
16,C35U C85A C103U A119U,-2.38
17,C36U U144C,-1.23
18,C38G C96G,-0.167
19,C38A C93A C131G A150U,≤ -4.2
20,A37U A49C C95G A97G C108G A138G U146G U151A,≤ -4.2
21,A37G U56G G58C G59A C93G C99G C108U,≤ -4.2
22,C36A A37C C43A U61A C85G,≤ -4.2
23,A37U A89C U148A,≤ -4.2
24,A37G U55A A73G U111G,≤ -4.2

row,Variant,polymerase ribozyme fitness (log ratio)
1,C35U A64U C116A G140C,-3.97
2,C36A C95U U104A C118G,≤ -4.2
3,A37U C85G G86A G92C A115G,-3.98
4,C35U C93G A119G,-3.76
5,C38A U55A C76A,-1.15
6,C36A C57A C99G A106U A115C,≤ -4.2
7,C36U U146G,-3.6
8,A37U G81A U101C U111A U148G,≤ -4.2
9,C35U U61A,-1.27
10,C38A A89U C93A G128A,≤ -4.2
11,C38U C43U A73U C79A U90C U148G,≤ -4.2
12,C38A C57A G83A,-0.895
13,C38G G92A,-4.14
14,C38A C93U,-1.67
15,C38U C54U G58C C85U C105G U144C,-2.92
16,C36A G58A G67U G81C C103G A113U U134G G141U,≤ -4.2
17,C38A A41C C54A G136U,-4.11
18,C35U A52C G58U G59C G70U C85A G152U,≤ -4.2
19,A37C A49C U77A C87G A120G C131G,≤ -4.2
20,A37G C96G,-1.89
21,C38A G70C G126C,-3.53
22,C35U G59C C76G G124U,≤ -4.2
23,C36G C54G A97G A98U C99U U104A C105G G117A G133C A150U,≤ -4.2
24,C38A G92C C93A C125G,≤ -4.2

row,Variant,polymerase ribozyme fitness (log ratio)
1,A37C A73G G86A,-2.34
2,C38U A73G G86A A91U A97G A115C,≤ -4.2
3,C36G A66U G68C,≤ -4.2
4,C36A U55A C57G C76A,-4.03
5,C38G U53A C85U U135A,-1.98
6,C35U G65C C76U C96A,≤ -4.2
7,A37C C118U A121G,0.0889
8,C36A A47U A52U U53A G59C A106G,≤ -4.2
9,C36U U55A C93U U144G,-1.07
10,C38A C69G C93U U139A,≤ -4.2
11,A37C A41C U53A U56G G59A C79U C87A A113U U134A,≤ -4.2
12,C35U G65A G80U C95G G141C,-3.95
13,A37U A66U C76A U102A G141C,≤ -4.2
14,C38U A89U C114U,-2.12
15,C36A U56G C103G A142G G143C,≤ -4.2
16,C38A A41C U61A G94A C131A G141A U144G U151A,≤ -4.2
17,C35G G126U,-4.16
18,C35U G92A,-3.33
19,C36A A91U C93G C118A A137U,≤ -4.2
20,A37C C87U A119U G128C,-3.46
21,C36A C79U G88C A113G A150U,≤ -4.2
22,C35U U144G,1.13
23,C35U U144A,-0.455
24,C36U C57G C69A U134C,-2.32

row,Variant,polymerase ribozyme fitness (log ratio)
1,C36U A49U C79A A106U A147C,≤ -4.2
2,C38A U61A A97G C123U,-1.68
3,A37G G58U A89G,-2.84
4,C36A A47U G74U G92C A115G C149G,≤ -4.2
5,A37U A41U A89G A115C A150U,≤ -4.2
6,C36G A52C C95U U148A A150U,≤ -4.2
7,A37G A47G G92C,-3.05
8,C35U C87U C96U C114U,-3.78
9,A37C C99U C118U G143A U144A,-3.39
10,C38U A39C G92U,-2.59
11,C36U A66G C87U C93U U135A,≤ -4.2
12,C35U A41G G94A A98U G152U,-3.4
13,C38A C95G G124C,-1.34
14,C35U G124A,-0.554
15,C38U C85U,-0.884
16,C38U C63A C103A,-1.77
17,C35U A37G U61A A64U C149G,≤ -4.2
18,C35U A107U,-4.03
19,C35G U55C G68U A91G G126A,≤ -4.2
20,C36A U55A G92A C96G G126C U144C,≤ -4.2
21,C35U G59A C87U U144C,-1.17
22,A37G C76U G80U C105U A122U,≤ -4.2
23,C38G U53A G70A G92A A107C,≤ -4.2
24,C36G U45G C54U A89U G94U C125G G126A,≤ -4.2

row,Variant,polymerase ribozyme fitness (log ratio)
1,C38A G58A C95G G124C C125U,-1.11
2,C36U U53A U78A G83A U90C,≤ -4.2
3,C36U C108U,≤ -4.2
4,A37C A41C U56A G67C C85A G126A C131A G141A,≤ -4.2
5,C35U G58U C87U C114A A119C,-4
6,C36U C95G,-2.94
7,C38A U146G,-1.37
8,C35U A97U U134A,-3.07
9,A37U C38A G58C C85G C87G,≤ -4.2
10,C35U U77C G88A G124U,≤ -4.2
11,C35U C116U,0.17
12,C38U A60U A89U,-0.823
13,C36U C76U G124U,-1.95
14,C38U C54A C99U C132U,-2.38
15,C36G G92C A121C C125A,≤ -4.2
16,C38A U45A C57A C87G U90G A107U,≤ -4.2
17,C38U C85U C131G,-3.56
18,A37C U45G A47C G59A C79G G81C U82C C95U,-4.18
19,A37U G65A A66U U77G G84A,≤ -4.2
20,C35U A52C U90A C95U A122C,≤ -4.2
21,A37C C75U U77G A89C C93A A121C U148G U151G,≤ -4.2
22,C36U A39C U82C G84U A119C A120U G133C A142U,≤ -4.2
23,C38A C95U,-0.419
24,C38A C95G,-1.41

row,Variant,polymerase ribozyme fitness (log ratio)
1,C36U G65C U102G G140C C149G,≤ -4.2
2,C36U U61A C96G G133A,-3.93
3,C38A C51U C95U G124C,-1.51
4,C35U G83A C116A,-1.03
5,C35U A64G G81U G92A C93A A115U U134A U151G,≤ -4.2
6,C38U A52C U55G U56A A120C A121C,-2.04
7,C36A C43G,≤ -4.2
8,C36A U56A U77G C87U U102A A119C,≤ -4.2
9,A37G U56G,-1.45
10,A37U A47G U53A G92C A106U A137G G141U,≤ -4.2
11,C35U A52G U56A U109G A119U,-3.89
12,A37G G92U,-2.01
13,C36A G94A A121C,-4.03
14,A37U A39G A40U C93U C105G A110U A138U,≤ -4.2
15,C38A U53A C95G A97G C116U,-2.22
16,A37U G65C A110U G136C,≤ -4.2
17,C38A G58C A98G A120C A121U,-0.687
18,A37G G84U,-3.14
19,C36U U56A C85G C105A C116A,≤ -4.2
20,C36G A39U A40U A60G U104A G136U G141A,≤ -4.2
21,A37C A40G G50U G86A A97U,≤ -4.2
22,C38A G80A G94A A97G C99G C131U G133C,≤ -4.2
23,A37G G84U U104G C118G,≤ -4.2
